Molecular target: GST-MLLE protein (MLLE domain of PABPC1)
Assay: SPR

Kd: 20 nM
B1: super-PAM2 peptide (peptide)
peptide: SNLNPNAPEFHPGVPWKGLQ

From article doi:10.1101/2021.02.07.430159
